This note sets out measurements from US20170320965A1, “PAN-REACTIVE ANTIBODIES TO DUOCARMYCINS” (SYNTHON BIOPHARMACEUTICALS B.V., priority 2014, published 2017).

This test deals with panel of 18 different duocarmycin-containing antibody-drug conjugates having a common DNA alkylating moiety. Description: BIA (Biomolecular Interaction Analysis) assay, surface plasmon resonance, second screening for pan-reactive antibodies. It counts as binding. The settings on record: anti-hapten mAb captured on polyclonal anti-mouse surface; ADCs 1 to 18 of FIG. 2 injected sequentially, approx. 20 μg/mL, 25° C. An excerpt:
The samples of the supernatant culture fluid are screened with a suitable assay for the selection of pan-reactive antibodies reactive to the antigen. Suitable immunoassays are well known and may be readily determined by the person skilled in the art. A preferred immuno-assay is the Biomolecular Interaction Analysis (BIA) assay in which the sensor chip surface is modified by immobilization of polyclonal anti-mouse which results in a surface that can bind any mouse monoclonal antibodies.
In a specific embodiment of the present invention, the BIA assay is performed using an anti-hapten A, B or C monoclonal antibody captured on a polyclonal anti-mouse surface to a high binding level (capture reagent). Subsequently, a panel of duocarmycin-containing antibody-drug conjugates is injected sequentially and the signal (RU, resonance or responsive units) indicating binding is recorded. The panel of duocarmycin derivatives contain the same DNA alkylating moiety as a common structural moiety (as shown hereinabove), but have a different DNA binding moiety, and/or linker, and/or antibody. Monoclonal, pan-reactive antibodies are selected based on surface plasmon resonance (SPR), which response is directly proportional to the mass increase on the surface. An increase in mass on the surface is a positive binding reaction. Those antibodies binding to at least 3, preferably at least 5, more preferably at least 10, even more preferably at least 15, most preferably at least 18 different duocarmycin-containing antibody-drug conjugates having the same DNA alkylating moiety described hereinabove, are selected as pan-reactive antibodies in accordance with the present invention.
The BIA (Biomolecular Interaction Analysis) assay was used for the selection of monoclonal, pan-reactive antibodies. One flow cell on a CMS sensor chip was immobilized by amine coupling with polyclonal anti-mouse to a level of approx. 16,000 RU. […]

B1: A-15-5-4: monoclonal, pan-reactive anti-duocarmycin antibody derived from hapten A; VH/VL SEQ ID NO:1 and 2 (antibody, listed as Mus musculus, V domains shown)
VH: QVQLQQPGAELVKPGASVKLPCKASGYTFISYYMYWVKQRPGQGLEWIGVINPSNGGTTFNEKFKNKATLTVDKSSSTAYLQLSSLTSEDSAVYYCTCLNYYGSSYWYFDVWGAGTTVTVSS
VL: DVVMTQTPLSLPVSLGDQASIFCRSSQSLVHSDGNTYLHWYLQKPGQSPKLLIYTVSNRFSGVPDRFSGSGSGTDFTLKISRVEAEDLGVYFCSQSTHVPWTFGGGTTLEIK
In the case of B1, the “binding to a panel of 18 different duocarmycin-containing antibody-drug conjugates” value was “show binding”.

B2: B-6-2-10: monoclonal, pan-reactive anti-duocarmycin antibody derived from hapten B; VH/VL SEQ ID NO:3 and 4 (antibody, listed as Mus musculus, V domains shown)
VH: DVKLVESGGGLVKPGGSLKLSCAASGFTFRTYTMSWVRQTPEKRLEWVATISSGGSYTYYPDSMKGRFTISRDNAKNTLYLQMSSLKSEDTAMYYCTRGPFYDVYYFLFAYWGQGTLVTVSA
VL: QAVVTQESALTTSPGETVTLTCRSSIGAVTTTNYANWVQEKPDHLFTGLIGGTNNRAPGVPARFSGSLIGDKAALTITGAQTEDEAIYFCALWYSNHWVFGGGTKLTVL
In the case of B2, the “binding to a panel of 18 different duocarmycin-containing antibody-drug conjugates” value is listed as “show binding”.

B3: C-16-1-7: monoclonal, pan-reactive anti-duocarmycin antibody derived from hapten C; VH/VL SEQ ID NO:5 and 6 (antibody, listed as Mus musculus, V domains shown)
VH: EVKLVESGGGLVKPGGSLKVSCAASGFTFSSYAMSWVRQIPDKRLEWVASISTGGITYYLDGVKGRFTISRDNARNILYLQMSSLRSEDTAIYYCARWSYAMDYWGQGTSVTVSS
VL: QIVLTQSPAIMSASLGERVTMTCTASSSVSSSYLHWYQQKPGSSPKVWIYSTSNLASGVPARFRGSGSGTSYSLTISSMEAEDAATYYCHQYHRSPPTFGGGTKLEIK
With B3, the “binding to a panel of 18 different duocarmycin-containing antibody-drug conjugates” value is reported as “show binding”.
